From the supplement of paper PMC9170038

Test system: K4 kissing-loop RNA reporter
Test: apparent KD of K4 kissing-loop reporter; higher = weaker reporter binding
Conditions: Eterna round: R107
Description: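 RNA-MaP round R107: designed RNA switches with theophylline, tryptophan, arginine or FMN aptamers are transcribed on-chip within common flanks. They are titrated with a labelled K4 kissing-loop RNA reporter in RNA-MaP buffer (100 mM Tris pH 7.5, 80 mM KCl, 4 mM MgCl2), without ligand or with the indicated ligand. Median apparent KD per design.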

[1] = input ligand: theophylline 20 uM
[2] = input ligand: tryptophan 2.4 mM
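Further: bound reporter read as fluorescence of individual clusters on recovered sequencing chips by microscopy, with normalized cluster intensities fitted with a binding model.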

Row | Sequence | apparent KD of K4 kissing-loop reporter (input ligand: FMN 200 uM) | apparent KD of K4 kissing-loop reporter (input ligand: arginine 13.2 mM) | apparent KD of K4 kissing-loop reporter (input ligand: none) | apparent KD of K4 kissing-loop reporter [1] | apparent KD of K4 kissing-loop reporter [2]
1 | GAUAUAGUGAUGUUAUAUACUGAUAGACAACGAGGACCGGUACGGCCGCCACUCGAGAGGGUGAAAAUGAUGAUAAAAUAAUGAU [#02 K4 Tryptophan A Exclusion] | 329 nM | 318 nM | 333 nM | 306 nM | 278 nM
2 | GAUCUGAACGAAAGUUCGGAUCAUUCCGAUACCAGUAUGGAUUCAUACCCUUGGCAGCGGGAUUCUGCUAUGGAGUGAUGUUCCA [Theophylline A K4 15] | 422 nM | 332 nM | 475 nM | 400 nM | 362 nM
3 | GAUGAAGAGUCGUUAGUUAGGGCUUUCGAUACCAGCGCCCGUCCACGCCCUUGGCAGCGAUUGAAAGAGUGAUGUUCUGUCAGGA [theeternabot_exclusion_KL_Theo_A_31] | 578 nM | 309 nM | 546 nM | 741 nM | 289 nM
4 | GAUUCUGUUCGAAAGAACGGAAUCACGGAAGGAGCGAGAGAAAUCUCAGGUAGGUCGCCGAAUUUUAGAUAGUGAUGUUAUCAUU [Arginine A K4 1] | 820 nM | 724 nM | 1080 nM | 856 nM | 711 nM
5 | GAUUUAGAGGCGGCCGCCACUAGUGAUGUUAGUGAUGUUUGAUACUGUAUAUAUCGGCGUGUAGAUAGGACCGGGCCUGAUGGAG [drrdmullin] | 259 nM | 176 nM | 266 nM | 210 nM | 196 nM
6 | GCAAUCCCGGCGGCCGCCACUUUCAUACCAGUGAUGUUGAGUAGGAAAUGGAAUAUGCGCUGAAUAAGGACCGGGCCUAAGGAGA [theeternabot_exclusion_KL_Trp_B_47] | 270 nM | 216 nM | 251 nM | 255 nM | 210 nM
7 | GCAGUGAUGUUGCGAAUCGGCCAUGAUGCAGAGGAUAUCGUGCCUUCGAGAAGGUUGUAUAGAGGAUACGAUACUAUUAAUGACG [Same State FMN A GF 6] | 395 nM | 356 nM | 714 nM | 413 nM | 329 nM
8 | GCAUCCAUGGCAGGAUAUAGGUUCGUGGAGUGAUGUUCCAUAGCCCGAGUGAUGUUCGUUAUCCACCUAGAAGGGCCAUGGAUGC [whbob_Ex_FMNB__2th212] | 270 nM | 205 nM | 246 nM | 211 nM | 210 nM
9 | GCAUCCAUGGCAGGAUAUAGGUUCGUGGAGUGAUGUUCCAUAGCCCGAGUGAUGUUCGUUAUCCGCCUAGAAGGGCCAUGGAUGC [whbob_Ex_FMNB__2th213] | 247 nM | 192 nM | 227 nM | 219 nM | 203 nM
10 | GCAUCGAUGGCAGGAUAUAGGUUCGUGGAGUGAUGUUCCAUAGCCCGAGUGAUGUUCGUUAUCCGCCUAGAAGGGCCGUGGAUGC [whbob_Ex_FMNB__2th215] | 263 nM | 210 nM | 297 nM | 221 nM | 244 nM
11 | GCCAGAUAGACGGCCGCCACUUAUAAGUUUCAGUGAUGUUGGAACGGCAAAUGCCGAACACAAUAGAGGACCGGGUCAACUGGCG [Same State Tryptophan B GF 1] | 920 nM | 591 nM | 835 nM | 901 nM | 639 nM
12 | GCCGCAAGGCUAGCAGCAAUAGGCGCUCGCUAGGAUAUCUGGAAACAGAGAAGGAGCUGGAGUGAUGUUUUACCUCCUUGUUAUU | 1000 nM | 735 nM | 950 nM | 814 nM | 657 nM
13 | GCCGUACGCAUGGAUACCAGAUGGCACUAUUUUCUCCCAGAGUGAUGUUCUGGCCUGCCUAUCCCUUGGCAGCCAUGCGUACGGC | 806 nM | 616 nM | 800 nM | 488 nM | 671 nM
14 | GCCGUACGCAUGGAUACCAGCAGAACUGCCCUCCCAGUGAUGUUGGGAGGAUCUUUCCUUUGCCCUUGGCAGCCAUGCGUACGGC | 126 nM | 112 nM | 124 nM | 84.8 nM | 117 nM
15 | GCCGUACGCAUGGAUACCAGUCUAAGAGUGAUGUUCUUACCGAUUGCGCCUGGAUCAUUAGACCCUUGGCAGCCAUGCGUACGGC | 155 nM | 117 nM | 126 nM | 148 nM | 146 nM
16 | GCCGUACGCAUGGAUACCAGUCUUAGAGUGAUGUUCUAAUCGAUUGCGCCUGGAUCAAUGGACCCUUGGCAGCCAUGCGUACGGC | 129 nM | 97.3 nM | 120 nM | 125 nM | 112 nM
17 | GCCGUACGCAUGGAUACCAGUUGCGAAGUGAUGUUUCGGGCGAUCAAAGGAUCGCCCUACAACCCUUGGCAGCCAUGCGUACGGC | 158 nM | 67.3 nM | 122 nM | 204 nM | 120 nM
18 | GCCGUAGAUGGAAGGAGCGUGGUGGACUCGUGAAGUGAUGUUUCAAGUCGAUAUGCCCAACCACAGGUAGGUCGCCAUCUACGGC | 206 nM | 161 nM | 169 nM | 198 nM | 174 nM
19 | GCCGUAGAUUGAAGGAGCGGGAGAGGGAAAGUGAUGUUUUCUCUAUGACGGCGUCCUCGAUCCCAGGUAGGUCGCAAUCUACGGC | 137 nM | 80.7 nM | 99.7 nM | 80.3 nM | 105 nM
20 | GCCGUAGAUUGAAGGAGCGUUCUUACUGAGUACGGCAACCGGAAGUGAUGUUUCCAGGUGGAACAGGUAGGUCGCAAUCUACGGC | 102 nM | 87.4 nM | 105 nM | 88 nM | 93.9 nM
21 | GCGCGUCAUGUCAGCGGUGACACUGUCGAUACCAGUGCCGGAAGGCGCCCUUGGCAGCGACGUGCUGGAGUGAUGUUCCAGCGUU [#2 Exclusion - Theophylline A Attempt #28 (HarryS)] | 136 nM | 128 nM | 151 nM | 131 nM | 130 nM
22 | GCGCGUGUUAAAGGAUAUAGCAGGUGAUACAAGAAAGUGAGUGAUGUUUAUGUAGAUGAUGAUAUGUUAGAAGGUUAACACGCGC [abcdefghijklmnopqr] | 784 nM | 635 nM | 966 nM | 688 nM | 629 nM

Row | Sequence | apparent KD of K4 kissing-loop reporter (input ligand: FMN 200 uM) | apparent KD of K4 kissing-loop reporter (input ligand: arginine 13.2 mM) | apparent KD of K4 kissing-loop reporter (input ligand: none) | apparent KD of K4 kissing-loop reporter [1] | apparent KD of K4 kissing-loop reporter [2]
23 | GCGGCGGGCCAAGGAUAUAUUUUGGAGUGAUGUUGUUCAUUUAUUUGAGCUAGUGAUGUUGGUCGAAUAGAAGGUGGCCCGCCGC [whbob_Ex_FMNB__2th219] | 65.8 nM | 29.4 nM | 56.9 nM | 35.9 nM | 46 nM
24 | GCGUAGAUUAGCAGUGAUGUUGCUACGGAAGGAGCGCGUGAAAACGCAGGUAGGUCGCCGACAAAAUUAAUUUUAAUGUCUGCGC [KL-SSArg-A6] | 469 nM | 448 nM | 596 nM | 423 nM | 365 nM
25 | GCUAGUUUGGAAGGAUAUUCGUGCGAUCAAGUCAAACUUUACUGAGGGCGUUUUGGAGUGAUGUUCGAAGAAGGUCCCUUACUUA [theeternabot_exclusion_KL_FMN_B_28] | 1400 nM | 816 nM | 999 nM | 664 nM | 758 nM
26 | GCUCAGGAGUGAUGUUCCUAGUGAUGUUAACGAGGACCGGUACGGCCGCCACUCGAUACGGCCGGACCGUAGGAUAAACUAGAGC [Same State - Tryptophan A (Freestyle 10)] | 292 nM | 238 nM | 261 nM | 351 nM | 340 nM
27 | GGAAGAAGUGGUGUUGAUUAAGAAGCGGAAGGAGCGCCGAAGAAGGCAGGUAGGUCGCCGAAAUAUAGUGAUGUUAUAUAAAAGG [ExArg.A] | 168 nM | 170 nM | 229 nM | 168 nM | 199 nM
28 | GGAAGACACCUGAGUGAUGUUCGGGUGUGCCGAGGACCGGUACGGCCGCCACUCGGGUGGUACAGUUACUGAUUGGACCGCUAUC [Arbirace] | 127 nM | 203 nM | 275 nM | 603 nM | 204 nM
29 | GGAGAGAACUGAAGGAGCGGCAAGAGAGAAGGAAAUAUAGUGAUGUUAUAUAAGAGAGAGAGCCAGGUAGGUCGCAGAGGGAGGA [ExArgB.A] | 201 nM | 153 nM | 147 nM | 164 nM | 149 nM
30 | GGAGGCUAUGCAGGAUAUAGUCGGUUGAGUGAUGUUUAACGACUAAACCUUCUAAGUCACAGCCCGCUAGAAGGGCAUAGCCUCC | 427 nM | 225 nM | 258 nM | 229 nM | 266 nM
31 | GGAGGGAUCUCGGCCGCCACUCGUAAGAAAUGGGCCUCAGGGAUAUAGUGAUGUUAUGUAAAGAAGAGGACCGGGAGAAAGAAGG [ExTryptoB.Dd] | 222 nM | 208 nM | 247 nM | 306 nM | 209 nM
32 | GGAGUUACCUGGGAUACCAGUCGGAGGCCCAGAGCUCGGAGUGAUGUUCUGGGAUGUUUCGGCCCUUGGCAGCUCUGGGUCUCCG [#2 Exclusion - Theophylline B Attempt #4 (HarryS)] | 822 nM | 452 nM | 583 nM | 648 nM | 571 nM
33 | GGAGUUACCUGGGAUACCAGUCGGAGUCCUAGAGCUCGGAGUGAUGUUCUGGGAUGUUUCGGCCCUUGGCAGCUCUGGGACUCCC [#2 Exclusion - Theophylline B Attempt #11 (HarryS)] | 615 nM | 470 nM | 949 nM | 921 nM | 630 nM
34 | GGAGUUACCUGGGAUACCAGUCGGAGUCUCAGAGCUCGGAGUGAUGUUCUGGGAUGUUUCGGCCCUUGGCAGCUCUGGGACUCCU [#2 Exclusion - Theophylline B Attempt #17 (HarryS)] | 698 nM | 569 nM | 747 nM | 788 nM | 512 nM
35 | GGAUAGGACACAGGAUAUGGGCUAGGCAAGAAUAACUUGUCUAGCAAAUCCAUGAGGAGUGAUGUUCCAGAAGGGUGUCCUAUCG [FmnBX 1 C11+G75] | 431 nM | 111 nM | 94.9 nM | 97.3 nM | 86.7 nM
36 | GGAUAGGACAGAGGAUAUCUCUGAGGCAAGAAAACUUGUCUCUAAAGAGAUGACUCAGUGAUGUUGAGAGAAGGCUGUCCUAUCG [FmnBX 9 - #SwitchBubble #StaticStem] | 211 nM | 143 nM | 152 nM | 155 nM | 148 nM
37 | GGAUAGGAUAGAGGAUAUGGAAAACACAGAAAUAACUUGUUGUGUUUAUCCAUAGGGAGUGAUGUUCCAGAAGGCUGUCCUAUCG [MatMod 20 - Jieux - Exclusion - FMN B] | 284 nM | 200 nM | 192 nM | 219 nM | 151 nM
38 | GGAUAGGAUAGAGGAUAUGGAUUAGGCAAGAAUAACUUGUCUUGUAAAUCCAUGAGGAGUGAUGUUCCAGAAGGCUGUCCUAUCG [MatMod 6 - Jieux - Exclusion - FMN B] | 233 nM | 113 nM | 116 nM | 117 nM | 94.3 nM
39 | GGAUAGGAUAGAGGAUAUGGGCUAGGCAAGAAUAACUUGUCUAGCAAAUCCAUGAGGAGUGAUGUUCCAGAAGGCUGUCCUAUCG [FmnBX 1 U9] | 901 nM | 169 nM | 152 nM | 211 nM | 128 nM
40 | GGAUCCACCAGUGAUGUUGGAGAAAACUUCAAGGAUAUGACGAAAGUCAGAAGGUGGUAGACUGGACAAAGUCCGGUGGGAUCCA [FmnA10 U29+G78] | 622 nM | 214 nM | 264 nM | 566 nM | 198 nM
41 | GGAUUGCCAGUGAUGUUGGCAUAAACUGAAGGAGCGCGUGAAAACGCAGGUAGGUCGCAGAACCUUGCCAACUAUUUUAUUUACC [Ex Arginine A K4 23] | 89.3 nM | 118 nM | 97.9 nM | 103 nM | 79.8 nM
42 | GGCACGGUGACGCGGCUGCCGUGCGCUUGGGAGGAUAUGUUUCGUGACAGAAGGCCCAGUGAUGUUGGGUCUGUUCAAAAGGACU [Edmatianri] | 339 nM | 104 nM | 125 nM | 121 nM | 104 nM
43 | GGCAGUGAUGUUGCCAGUGGCAGAUGCGAAGGAGCGCGGUGAGACGCAGGUAGGUCGCGCAUUGAAAUUGCUGUCACUAAAAUGC [#1] | 261 nM | 274 nM | 290 nM | 320 nM | 238 nM
44 | GGCAGUGAUGUUGCCAGUGGCAGAUUGGAAGGAGCGUGGUGAGACACAGGUAGGUCGCUAAUUGAAGUUGCUGUCACUAAAAUGC [whbob_Ex_Arginine_A_2t131] | 276 nM | 299 nM | 307 nM | 260 nM | 241 nM
